From patent US20240279325A1 (Chugai, published 2024) come the findings set out here.

The target in one assay is T1, mouse FcγRI (mouse, UniProt P26151 25-297).
T1 construct: also called mFcγRI
T1 sequence (looked up): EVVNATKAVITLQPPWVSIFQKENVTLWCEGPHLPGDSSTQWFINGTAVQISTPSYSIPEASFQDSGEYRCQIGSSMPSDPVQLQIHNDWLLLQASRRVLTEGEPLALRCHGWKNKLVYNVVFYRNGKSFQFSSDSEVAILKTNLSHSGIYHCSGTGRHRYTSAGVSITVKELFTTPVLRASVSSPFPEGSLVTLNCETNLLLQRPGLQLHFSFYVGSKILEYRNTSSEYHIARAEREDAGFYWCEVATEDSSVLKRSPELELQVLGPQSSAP
The assay is described as follows: SPR (Biacore). (In general: In SPR one partner is held on a chip, and binding of the other changes the refractive index at the surface.)

For a further assay, the target named is T2, mouse FcγRIV (mouse, UniProt A0A0B4J1G0 21-203).
T2 construct: also called mFcγRIV; not shown: purification tag of the soluble receptor (probably a His tag)
T2 sequence: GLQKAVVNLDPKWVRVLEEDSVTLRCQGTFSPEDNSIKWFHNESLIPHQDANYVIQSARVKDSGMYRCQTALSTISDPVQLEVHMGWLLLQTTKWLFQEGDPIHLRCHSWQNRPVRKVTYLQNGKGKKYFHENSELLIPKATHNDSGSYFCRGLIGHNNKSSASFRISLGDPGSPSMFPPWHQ
The assay is described as follows: SPR (Biacore).

B1: VH3/L (WT)-mIgG1 (antibody)
heavy: QVQLQESGPGLVKPSETLSLTCAVSGHSISHDHAWSWVRQPPGEGLEWIGFISYSGITNYNPSLQGRVTISRDNSKNTLYLQMNSLRAEDTAVYYCARSLARTTAMDYWGEGTLVTVSSAKTTPPSVYPLAPGSAAQTNSMVTLGCLVKGYFPEPVTVTWNSGSLSSGVHTFPAVLQSDLYTLSSSVTVPSSTWPSETVTCNVAHPASSTKVDKKIVPRDCGCKPCICTVPEVSSVFIFPPKPKDVLTITLTPKVTCVVVDISKDDPEVQFSWFVDDVEVHTAQTQPREEQFNSTFRSVSELPIMHQDWLNGKEFKCRVNSAAFPAPIEKTISKTKGRPKAPQVYTIPPPKEQMAKDKVSLTCMITDFFPEDITVEWQWNGQPAENYKNTQPIMDTDGSYFVYSKLNVQKSNWEAGNTFTCSVLHEGLHNHHTEKSLSHSPGK
light: not shown
notes: copies: 2 + 2
For the molecule B1, the binding result with mouse FcγRI and with mouse FcγRIV was “no binding” throughout.
